Measurements as given in patent US20220153790A1 (TECHNISCHE UNIVERSIT T M NCHEN, published 2022).
Where a chain is given by its changes, count along the chain named. Values belong to the binder of their own block, whether it stands above or below them.

Columns and labels:
[1] = target: T1, fully glycosylated, monobiotinylated extracellular domain of human CD98hc produced in HEK 293E cells (human, UniProt P08195 111-529, N-linked glycosylation at Asn264, 280, 323 and 405 (UniProt P08195-2); single biotin on the N-terminal BAP); assay: not given
T1 construct: also called hCD98hcEDg; CD98hcEDg; not shown: N-terminal His6 tag and biotin acceptor peptide (BAP) from pDSG-BM-His6-BAP-hCD98hcEDg
T1 sequence: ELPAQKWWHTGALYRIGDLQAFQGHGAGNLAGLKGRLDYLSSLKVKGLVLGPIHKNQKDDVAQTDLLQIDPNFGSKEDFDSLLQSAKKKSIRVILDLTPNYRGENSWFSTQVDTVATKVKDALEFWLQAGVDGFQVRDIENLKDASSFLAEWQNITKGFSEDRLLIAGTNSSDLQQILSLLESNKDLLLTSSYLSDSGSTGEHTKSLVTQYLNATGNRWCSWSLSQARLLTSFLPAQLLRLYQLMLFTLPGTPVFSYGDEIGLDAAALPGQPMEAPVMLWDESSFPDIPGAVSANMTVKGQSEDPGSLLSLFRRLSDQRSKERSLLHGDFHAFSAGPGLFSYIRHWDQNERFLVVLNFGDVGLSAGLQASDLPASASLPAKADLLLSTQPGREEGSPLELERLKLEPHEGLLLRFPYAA

[2] = target: T2, unglycosylated, monobiotinylated extracellular domain of human CD98hc produced in E. coli (human, UniProt P08195 111-529, single biotin on the N-terminal biotin acceptor peptide (BAP)); assay: SPR, complex dissociation half-life
T2 construct: also called hCD98hcED; CD98hcED; not shown: N-terminal biotin acceptor peptide (BAP) from pASK-IBA5(+)-BAP-hCD98hcED
T2 sequence: T1 sequence
Description: (§1) Real time surface plasmon resonance (SPR) spectroscopy was performed on a BIAcore 2000 system (BIAcore, Uppsala, Sweden) at 25° C. using HBS-T (20 mM Hepes/NaOH pH 7.5, 150 mM NaCl, 0.005% v/v Tween20) as running buffer. The purified biotinylated m/hCD98hcED (3 μg/ml protein solution in HBS-T produced in HEK cells or E. coli) was immobilized (ARU-225) via streptavidin on a CAP sensorchip of the Biotin CAPture kit (GE Healthcare). SPR single cycle kinetic experiments were performed using five consecutive injections of a 1:2 dilution series of the purified lipocalin variant at a flow rate of 25 μl/min, with 288 s contact time and 3500 s dissociation time after the fifth injection. For multi cycle kinetic experiments, eight samples from a consecutive 1:2 dilution series of the purified lipocalin variant were measured. Rate constants of association and dissociation were calculated from reference-corrected sensorgrams by fitting to a global 1:1 Langmuir binding model using BIAevaluation software (BIAcore). The equilibrium dissociation constants (KD value) were calculated as the quotient koff/kₒₙ. To test competitive binding of the lipocalin variants P3D11, P3A12 and P1E4 to glycosylated hCD98hcED, 100 nM of P3D11 was first injected and followed by a subsequent injection of either 100 nM P3A12 or 100 nM P1E4. HBS-T injections served as negative control.

[3] = target: T1, fully glycosylated, monobiotinylated …; assay: SPR, complex dissociation half-life
Description: as §1

[4] = target: T1, fully glycosylated, monobiotinylated …; assay: SPR, biotinylated hCD98hcEDg captured on CAP chip
Description: as §1

[5] = target: T1, fully glycosylated, monobiotinylated …; assay: SPR, comparison of glycosylated and unglycosylated ectodomain
Description: as §1

[6] = target: T2, unglycosylated, monobiotinylated …; assay: SPR (BIAcore 2000), biotinylated hCD98hcED captured on CAP chip, multiple cycle kinetics
Description: as §1

[7] = target: T2, unglycosylated, monobiotinylated …; assay: SPR
Description: as §1

[8] = target: T2, unglycosylated, monobiotinylated …; assay: SPR (BIAcore 2000), biotinylated hCD98hcED captured on CAP chip, single cycle kinetics
Description: as §1

[9] = target: T2, unglycosylated, monobiotinylated …; assay: single clone flow cytometry of E. coli displaying the lipocalin, 1 nM biotinylated hCD98hcED, mean PE fluorescence
Description: (§2) The bacterial lawn was scraped from the plate(s), resuspended in 50 ml LB/Amp medium, followed by inoculation to an initial OD₅₅₀ of 0.15 at 37° C. Gene expression was induced at OD₅₅₀=0.5 with 10 ng/ml anhydrotetracycline (aTc) for 2.5 h. Approximately 2×10⁸ cells were sedimented and resuspended in PBS with biotinylated hCD98hcED at different concentrations (cycles 1 and 2: 100 nM; cycles 3 and 4: 10 nM; cycles 5 and 6: 1 nM) for 1 h at 4° C. After one washing step with PBS, the bacteria were incubated with 25 μg/ml streptavidin/phycoerythrin (PE) conjugate (Biolegend, San Diego, Calif.) and 3 μM dye-labeled Fab A3C5-DY634 [61] in PBS for 30 min followed by a last washing step in PBS. Bacteria were sorted on a FACSAria Ilu instrument (BD Bioscience, Heidelberg, Germany) using a 488 nm LASER diode with a 585/42 band pass filter or a 633 nm HeNe LASER in combination with a 660/20 band pass filter for excitation/detection of PE and DY634 fluorescence, respectively. Sorted bacteria were plated on LB/Amp agar, incubated at 37° C. for 12 h and then subjected to a new sorting cycle. After BSD cycle 6, single clone analysis was performed by cytofluorimetric analysis of individual colonies. Data were processed using FlowJo v10 software (FlowJo, Ashland, Oreg.). […]

[10] = target: T2, unglycosylated, monobiotinylated …; assay: flow cytometry of E. coli displaying the lipocalin; hCD98hcED detected by PE fluorescence, display level by Dy634 fluorescence
Description: as §2

B2: lipocalin variant D11vs (designed binder)
chain: QDSTSDLIPAPPLSKVPLQQNFQDNQFHGKWYVVGRAGNTGLREDKDPGKMFATIYELKEDKSYNVTYVWSGQKKCMYSIVTFVPGSQPGEFTLGNIKSAPGRTSWLVRVVSTNYNQHAMVFFKSVTQNREGFAITLYGRTKELTSELKENFIRFSKSLGLPENHIVFPVPIDQCIDG
notes: P3D11 variant with Phe71Ser and Gly81Val; also called Anticalin D11vs; not shown: C-terminal His6-tag (plasmid pNGAL118) as for the other soluble lipocalin variants
fold increase of affinity against P3D11 [7]: ~3 fold
T½ [2]: 7.37 h
T1/2 [3]: 8.72 h
Kd [4]: 0.05 nM
koff [4]: 2.2e-05 s⁻¹
kon [4]: 460000 M⁻¹ s⁻¹
Kd [8]: 0.05 nM
koff [8]: 2.6e-05 s⁻¹
kon [8]: 450000 M⁻¹ s⁻¹

B4: SEQ ID NO 8 (designed binder)
chain: B2 chain with S71F, H118Y, V126E, N151Y
Kd [1]: ≤ 200 nM

B6: SEQ ID NO 5 (designed binder)
chain: B2 chain with S71F, H118Y
Kd [1]: ≤ 200 nM

B9: SEQ ID NO 7 (designed binder)
chain: B2 chain with S71F, Y78N, H118Y
Kd [1]: ≤ 200 nM

B10: SEQ ID NO 6 (designed binder)
chain: B2 chain with Y64F, S71F
Kd [1]: ≤ 200 nM

More lines, now with the values ahead:

Kd [1]: ≤ 200 nM
T½ [2]: 0.0183 h
T1/2 [3]: < 0.0167 h
Kd [4]: 162 nM
koff [4]: 0.09 s⁻¹
kon [4]: 560000 M⁻¹ s⁻¹
fold decrease of binding by N-glycosylation (hCD98hcEDg against hCD98hcED) [5]: ~100 fold
Kd [6]: 4.5 nM
koff [6]: 0.011 s⁻¹
kon [6]: 2.5e+06 M⁻¹ s⁻¹
B1: lipocalin variant P1E4 (designed binder)
chain: QDSTSDLIPAPPLSKVPLQQNFQDNQFHGKWYVVGIAGNSMLREDKDPFKMTATIYELKEDKSYNVTRVRFDDKKCLYRILTFVPGSQPGEFTLGNIKSRPGWTSWLVRVVSTNYNQHAMVFFKRVHQNRETFWITLYGRTKELTSELKENFIRFSKSLGLPENHIVFPVPIDQCIDG
notes: produced soluble in E. coli JM83, monomeric; also called Anticalin P1E4; not shown: C-terminal His6-tag (plasmid pNGAL118)

Kd [1]: ≤ 200 nM
B3: SEQ ID NO 10 (designed binder)
chain: B2 chain with T82S, F92Y, T93N

Kd [1]: ≤ 200 nM
T½ [2]: 5.99 h
T1/2 [3]: 3.83 h
Kd [4]: 0.17 nM
koff [4]: 5e-05 s⁻¹
kon [4]: 300000 M⁻¹ s⁻¹
Kd [8]: 0.15 nM
koff [8]: 3.2e-05 s⁻¹
kon [8]: 220000 M⁻¹ s⁻¹
B5: lipocalin variant P3D11 (designed binder)
chain: B2 chain with S71F, V81G
notes: produced soluble in E. coli JM83, monomeric; also called Anticalin P3D11; not shown: C-terminal His6-tag (plasmid pNGAL118)

Kd [1]: ≤ 200 nM
B7: SEQ ID NO 11 (designed binder)
chain: B2 chain with K74T

Kd [1]: ≤ 200 nM
B8: SEQ ID NO 9 (designed binder)
chain: B2 chain with S71F, G132E

binding result [9]: binds
B11: P3D11 variant D11.1 displayed on the E. coli cell surface (designed binder)
chain: B2 chain with R103Q, N151I
notes: One of the variants from error-prone PCR and bacterial surface display; not shown: The display carrier: the A3C5 tag and the engineered beta-domain of the autotransporter EspP (pNGAL146)

binding result [10]: no binding (tested: 100 nM hCD98hcED)
B12: wtLcn2 displayed on the E. coli cell surface (other)
chain: QDSTSDLIPAPPLSKVPLQQNFQDNQFQGKWYVVGLAGNAILREDKDPQKMYATIYELKEDKSYNVTSVLFRKKKCDYWIRTFVPGCQPGEFTLGNIKSYPGLTSYLVRVVSTNYNQHAMVFFKKVSQNREYFKITLYGRTKELTSELKENFIRFSKSLGLPENHIVFPVPIDQCIDG
notes: Control in the single clone FACS analysis; also called wild type Lcn2; not shown: The display carrier: the A3C5 tag and the engineered beta-domain of the autotransporter EspP (pNGAL146)

Kd [1]: ≤ 200 nM
T½ [2]: 1.13 h
T1/2 [3]: 0.483 h
Kd [4]: 1.9 nM
koff [4]: 0.0004 s⁻¹
kon [4]: 220000 M⁻¹ s⁻¹
Kd [8]: 2.8 nM
koff [8]: 0.00017 s⁻¹
kon [8]: 62000 M⁻¹ s⁻¹
B13: lipocalin variant P3A12 (designed binder)
chain: QDSTSDLIPAPPLSKVPLQQNFQDNQFHGKWYVVGRAGNLGLREDKDPAKMFATIYELKEDKSYNVTYVWFDLKKCKYSIHTFVPGSQPGEFTLGKIKSGPGHTSWLVRVVSTNYNQHAMVFFKWVGQNRENFAITLYGRTKELTSELKENFIRFSKSLGLPENHIVFPVPIDQCIDG
notes: produced soluble in E. coli JM83, monomeric; also called Anticalin P3A12; not shown: C-terminal His6-tag (plasmid pNGAL118)
